Assay results as given in article PMC9296380, “Characterisation of recombinant GH 3 β-glucosidase from β-glucan producing Levilactobacillus brevis TMW 1.2112” (Antonie Van Leeuwenhoek, 2022).

Substrate: O=[N+]([O-])c1ccc(O[C@@H]2O[C@H](CO)[C@@H](O)[C@H](O)[C@H]2O)cc1
Assay: purified protein
Format: biochemical, Levilactobacillus brevis
Conditions: 50 mM PBS buffer pH 7, 37 °C, 0.01-20 mM substrate

B1: BglB (Levilactobacillus brevis) (protein)
chain: MDIERTLAELTLPEKAALVSGKNNWYTAAVDRLDLPALMMTDGPSGLRKQTNSGTTNINDAIQAITYPAAALSASTWNESLMHQLGEHLGIEARAEQVSLLLGPGVNMKRSPLGGRNFEYLAEDPLVAGKLGSAYVQGVQSQHVGVAVKHFAANNRENQRFTASSDMSERTLRELYLRTFEIIVKSAYPATIMTSYNKINGVLNSQNERLLRRILRDEWGFHGAVMSDWGAVANTVQALKAGLDLEMPGKGQASVNDIIRAVHTGELDEGTLNKAVRHLLHVVDDWLPADHAQPYDHAAHHQFARKLADDGIILLKNHEDELPLDPQTTGKVVVIGELAENPRFQGSGSSHVNPTKLVSPLDALADSGLKADYYPGYRLDQSETNGDLAEAALTAAKTADHVIIFAGYPETAESEGFDKASLMLPENQSDLIGSLAKANVHTTVVLQNGSAVEMPWIHSVAAVVETYLAGEAVGEATWDIITGAVNPSGHLTETFPRRLTDTPMAPTFGQDPHHEYYTEGIFMGYRYYDTHEMHVLFPFGHGLSYTTFEYTNLKLTQNERGATVTFDVTNTGARSGQAVPQLYIANHASHVPMPTKELRAFTKVAIAPGETETVTLALDRRDFSWWCEPKARWQADSGDYEVMIGESSRDIRLQVKLTMDFKNSPAPITTETYMAAIVKNPQLRDLFKQVVLAPEYAGPENFLATTDDQGSLQIFQDRMFMNMPLRAVVALGGPQALITDFITRANTLLRQ
notes: no signal peptide predicted; C-terminal His tag (stop codon removed, Myc region excised) from pBAD/Myc-His A; expressed in E. coli BL21, Ni-NTA purified; primer-encoded N-terminus MDIERTLAEL
- Km: 220 µM
- kcat: 59.58 s⁻¹
